In this experiment the target is human recombinant netrin‐1, on AHC biosensors (human, UniProt O95631 25-604). As to the kind of experiment: BLI.

B1: fibronectin leucine‐rich transmembrane protein (FLRT1), recombinant human (natural protein)
chain: IDSTTCPSVCRCDNGFIYCNDRGLTSIPADIPDDATTLYLQNNQINNAGIPQDLKTKVNVQVIYLYENDLDEFPINLPRSLRELHLQDNNVRTIARDSLARIPLLEKLHLDDNSVSTVSIEEDAFADSKQLKLLFLSRNHLSSIPSGLPHTLEELRLDDNRISTIPLHAFKGLNSLRRLVLDGNLLANQRIADDTFSRLQNLTELSLVRNSLAAPPLNLPSAHLQKLYLQDNAISHIPYNTLAKMRELERLDLSNNNLTTLPRGLFDDLGNLAQLLLRNNPWFCGCNLMWLRDWVKARAAVVNVRGLMCQGPEKVRGMAIKDITSEMDECFETGPQGGVANAAAKTTASNHASATTPQGSLFTLKAKRPGLRLPDSNIDYPMATGDGAKTLAIHVKALTADSIRITWKATLPASSFRLSWLRLGHSPAVGSITETLVQGDKTEYLLTALEPKSTYIICMVTMETSNAYVADETPVCAKAETADSYGPTTTLNQEQNAGPMASLP
A word on the Kd: it is a measure of binding affinity in units of concentration. For the molecule B1, the Kd turned out to be 20.7 nM.
